Measured values published in patent US20030165527A1 (published 2003).

Molecular target: T1, collagen type I from calf skin (Boehringer) (calf, UniProt P02453 162-1217; P02465 80-1117)
T1 construct: Bought preparation coated on microtiter wells
Assay: not described; control for the collagen-Fn inhibition ELISA

T1 sequence (P02453 162-1217 limits assumed, chain 1 of 2): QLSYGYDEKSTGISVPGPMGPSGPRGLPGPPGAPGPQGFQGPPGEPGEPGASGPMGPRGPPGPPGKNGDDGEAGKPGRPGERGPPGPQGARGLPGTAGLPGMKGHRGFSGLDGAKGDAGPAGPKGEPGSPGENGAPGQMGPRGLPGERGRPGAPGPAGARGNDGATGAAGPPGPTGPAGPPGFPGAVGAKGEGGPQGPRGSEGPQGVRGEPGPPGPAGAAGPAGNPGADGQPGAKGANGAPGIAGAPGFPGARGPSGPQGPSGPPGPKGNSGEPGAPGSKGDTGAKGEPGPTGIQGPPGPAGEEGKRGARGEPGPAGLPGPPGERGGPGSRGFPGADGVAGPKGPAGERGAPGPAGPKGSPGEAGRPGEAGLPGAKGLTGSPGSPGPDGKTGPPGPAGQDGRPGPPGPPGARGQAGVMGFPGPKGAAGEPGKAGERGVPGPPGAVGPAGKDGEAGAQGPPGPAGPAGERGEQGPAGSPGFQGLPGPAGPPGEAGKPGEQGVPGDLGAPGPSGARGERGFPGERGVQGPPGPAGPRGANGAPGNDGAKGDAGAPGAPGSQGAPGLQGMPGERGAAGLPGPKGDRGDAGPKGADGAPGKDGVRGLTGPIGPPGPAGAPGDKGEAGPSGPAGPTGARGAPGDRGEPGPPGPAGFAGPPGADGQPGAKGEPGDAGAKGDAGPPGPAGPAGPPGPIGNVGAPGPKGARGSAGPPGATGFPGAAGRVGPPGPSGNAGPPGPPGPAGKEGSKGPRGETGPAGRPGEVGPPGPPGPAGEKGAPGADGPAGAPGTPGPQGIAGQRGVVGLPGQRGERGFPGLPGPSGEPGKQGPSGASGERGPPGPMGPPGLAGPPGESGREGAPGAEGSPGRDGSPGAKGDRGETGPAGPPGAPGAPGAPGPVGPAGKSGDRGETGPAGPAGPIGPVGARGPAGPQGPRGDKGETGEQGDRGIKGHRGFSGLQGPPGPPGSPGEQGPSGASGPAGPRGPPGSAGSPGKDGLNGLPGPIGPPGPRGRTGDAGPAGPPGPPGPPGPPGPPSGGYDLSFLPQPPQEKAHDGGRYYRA
T1 sequence (P02465 80-1117 limits assumed, chain 2 of 2): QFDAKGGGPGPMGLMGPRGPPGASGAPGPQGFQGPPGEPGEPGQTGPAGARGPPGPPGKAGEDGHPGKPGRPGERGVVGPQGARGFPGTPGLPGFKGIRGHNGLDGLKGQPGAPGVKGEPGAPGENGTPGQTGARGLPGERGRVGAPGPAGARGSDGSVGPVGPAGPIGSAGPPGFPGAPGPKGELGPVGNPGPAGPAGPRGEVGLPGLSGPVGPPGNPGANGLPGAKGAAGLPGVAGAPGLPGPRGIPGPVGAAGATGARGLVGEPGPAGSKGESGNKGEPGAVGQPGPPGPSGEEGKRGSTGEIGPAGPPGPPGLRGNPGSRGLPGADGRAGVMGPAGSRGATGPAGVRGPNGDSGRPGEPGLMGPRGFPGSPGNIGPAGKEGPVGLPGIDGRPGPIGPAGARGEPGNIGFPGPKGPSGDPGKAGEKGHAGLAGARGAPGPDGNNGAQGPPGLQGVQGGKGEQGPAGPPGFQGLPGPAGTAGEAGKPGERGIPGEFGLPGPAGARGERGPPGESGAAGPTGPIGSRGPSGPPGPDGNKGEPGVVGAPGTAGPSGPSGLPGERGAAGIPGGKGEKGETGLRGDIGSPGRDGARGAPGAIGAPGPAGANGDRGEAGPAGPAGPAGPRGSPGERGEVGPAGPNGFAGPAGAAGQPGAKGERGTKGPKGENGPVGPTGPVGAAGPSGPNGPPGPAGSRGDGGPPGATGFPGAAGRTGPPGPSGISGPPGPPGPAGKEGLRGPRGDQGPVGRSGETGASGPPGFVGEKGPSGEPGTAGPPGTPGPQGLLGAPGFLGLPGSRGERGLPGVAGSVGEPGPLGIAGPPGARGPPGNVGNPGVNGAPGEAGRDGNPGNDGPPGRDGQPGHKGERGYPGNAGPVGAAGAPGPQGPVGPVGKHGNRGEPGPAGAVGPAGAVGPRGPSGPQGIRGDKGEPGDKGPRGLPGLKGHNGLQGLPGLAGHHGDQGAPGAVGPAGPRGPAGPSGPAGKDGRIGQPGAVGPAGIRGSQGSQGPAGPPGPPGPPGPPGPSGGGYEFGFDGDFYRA

B1: recombinant fusion protein SFS-E (mature protein SFS of Streptococcus equi subsp. equi Bd 3221 with E-tag) (other)
chain: GAALVFGGLLGSLGGSSHQARPKEQPVSSIGDDDKSHKSSSDQPTNHQHQATSPSQPTAKSSGHHGNQPQSLSVNSQGNSSGQASEPQAIPNQHHQPQGKPQHLDLGKDNSSPQPQPKPQGNSPKLPEKGLNGENQKEPEQGERGLPGLNGENQKEPEQGERGEAGPPSTPNLEGNNRKNPLKGLDGENKPKEDLDGYNHGRRDGYRVGYEDGYGGKKHKGDYPKRFDESSPKEYNDYSQGYNDNYGNGNPD
notes: PCR fragment encoding the mature SFS was cloned into pG8SAET and purified from the periplasm on an anti-E tag column; both are treated as one molecule; also called recombinant protein SFS; not shown: 13 amino acid peptide tag (E-tag) encoded by vector pG8SAET
B1: no binding.
